Results published in article doi:10.1101/2024.05.31.596867.

Molecular target: de-glycosylated KEN SVMP PIII (PNGase F treated under native conditions) (Bitis arietans (puff adder, Kenya))
Experiment: gelatin zymogram

- stoichiometry N: 2
Substance: de-glycosylated KEN SVMP PIII (PNGase F treated under native conditions) (enzyme)
